The results in this text go back to publication PMC5461814.

The target in assay [1] is Dityrosine cross-linked Aβ42 dimer [Aβ(M1-42)]DiY. The experiment in a line: SEC.
Assay [2] has the same target. The experiment in a line: centrifugation with thioflavin T read-out.

With “Dityrosine cross-linked Aβ42 dimer [Aβ(M1-42)]DiY (peptide)”, in assay [1], the decrease of the dimer peak at t = max amounted to 40%. The ThT signal of the end-stage sample removed by centrifugation in assay [2] amounted to 80%.
